According to publication PMC12102759:

B1: ATXN2 peptide 911-926 (Ataxin-2), 16-mer library wild type / PABPC1 PABC (PABPC1 PABC domain, residues 544-623) (parent)
chain 1: KSTLNPNAKEFNPRSF
chain 2: PLTASMLASAPPQEQKQMLGERLFPLIQAMHPTLAGKITGMLLEIDNSELLHMLESPESLRSKVDEAVAVLQAHQAKEAA
B2: MXI1 peptide 6-21 (Max-interacting protein 1), 16-mer library wild type / SIN3A PAH2 (SIN3A PAH domain, residues 295-383) (parent)
chain 1: MINVQRLLEAAEFLER
chain 2: SLQNNQPVEFNHAINYVNKIKNRFQGQPDIYKAFLEILHTYQKEQRNAKEAGGNYTPALTEQEVYAQVARLFKNQEDLLSEFGQFLPDA

Variants of: B1
Test: proteomic peptide phage display deep mutational scan (ProP-PD DMS): M13 P8 16-mer library selected against immobilised GST-tagged bait for four days (rounds), NGS of the eluted pools per day and pseudo-replica
Conditions: with PABPC1 PABC (PABPC1 PABC domain, residues 544-623); bait immobilised on MaxiSorp plates (10 µg), library pre-cleared on GST, 2 h binding at 4 °C, five washes; one round per day, days 1-4; value from days 2 and 3; scale: average fractional NGS count over selection days 2 and 3

Screen value of substitutions, site by site:
chain 1 E10: H 0.000717 | T 0.000321 | Q 0 | V 0.000349 | S 0 | D 0 | R 0
chain 1 S15: A 0.000153 | L 0.00242 | W 5.73e-05 | Q 0 | Y 0.000151 | T 4.17e-05 | H 0.000677 | F 0.000136 | E 0.000122 | N 0.000583 | V 0.000546 | G 0 | I 0.000221 | P 0.000243 | D 0
chain 1 N5: D 0 | A 0 | Q 0 | S 2.4e-05
chain 1 N7: Y 5.67e-05 | A 0.000105 | G 0 | W 0 | V 0.000181 | T 1.57e-05 | F 0.00073 | E 0.000331 | Q 0.000449 | R 5.23e-05 | L 0.000441 | D 0.000764 | I 0.00577 | H 0.000328 | S 0.000455 | M 0.000289
chain 1 F11: Y 0.000235 | V 0 | W 0.000158
chain 1 P13: E 0.000246 | D 1.92e-05 | Y 0.000164 | W 0.000637 | F 0.00012 | L 0.00026 | H 0 | G 0.00243 | Q 0.00338 | T 1.02e-05 | A 0.000212 | M 0 | I 0.000517 | V 0.031 | N 0.000178
chain 1 R14: Y 0.000722 | V 0.000569 | W 0.00286 | E 0.000187 | H 0.000471 | M 9.46e-05 | S 0.00103 | Q 0.00156 | T 0.00309 | P 0.00013 | A 0.00158 | G 0.0017 | F 0.000523 | N 0.000117
chain 1 F16: D 0.000103 | A 0.00041 | W 8.6e-05 | V 0.000892 | N 0.000241 | I 0.000285 | S 0.000134 | L 0.00151 | Y 0.000515 | H 0.000158 | T 0.000108 | M 0.000149
chain 1 P6: H 4.64e-05 | A 0 | L 0.000389 | Y 0 | V 0.00101 | I 0.000875
chain 1 K9: Q 0.001 | H 0.00168 | R 0.00121 | I 0.0153 | Y 0.000884 | L 0.00284 | T 0.000868 | M 0.0042 | F 0.000915 | P 0.000159 | S 0.0022 | E 0.00113 | A 0.000101 | G 0.000242 | N 0.00453 | D 0.000277
chain 1 T3: V 0.00143 | E 0.00159 | G 0.000528 | K 0 | Y 3.57e-05 | W 0.000105 | I 0.00112 | M 0.000543 | S 0 | Q 0 | F 0.000481 | H 8.48e-05
chain 1 L4: M 0.000137 | Y 0 | F 0
chain 1 S2: M 0.00187 | H 0.00026 | L 5.2e-05 | Y 0.00178 | G 0.000237 | D 0.000114 | N 0 | E 0.000105 | P 0.00164 | F 0.000554 | T 0.00018 | I 0.000118 | A 0.000338 | V 0.000881
chain 1 N12: L 0 | G 0.000277 | S 0.000112 | K 0.000122 | V 0.00267 | P 0 | D 0.00012 | A 0.00161 | W 0.00202 | Q 0.000365 | T 0.000331 | I 0.000365 | E 0.000774 | F 0.000678 | H 0.000518 | M 0.00106
chain 1 A8: R 0 | S 0 | V 0.000222 | I 0

Variants of: B2
Test: as above
Conditions: with SIN3A PAH2 (SIN3A PAH domain, residues 295-383); bait immobilised on MaxiSorp plates (10 µg), library pre-cleared on GST, 2 h binding at 4 °C, five washes; one round per day, days 1-4; value from days 2 and 3; keep out of graded; scale: average fractional NGS count over selection days 2 and 3

Screen value: each site, then its substitutions
chain 1 L7: R 0 | M 0 | V 6.69e-05
chain 1 V4: S 0 | R 0 | E 0 | G 6.66e-05 | P 1.91e-05 | M 7.16e-05
chain 1 A11: D 0.000105
